Source: the nanobody polyreactivity screen of Harvey et al. (2022)

Test: yeast display, Sf9 membrane polyspecificity reagent, FACS + sequencing; frameworks hold sequencing errors
Outline: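 After 36–48 hours of galactose induction, yeast (Saccharomyces cerevisiae BJ5465) displaying a synthetic nanobody library were stained at 4 °C for 1 hour with 10% biotinylated, detergent-solubilized Sf9 membrane reagent. Streptavidin microbeads enriched the stained cells before FACS sorting into low and high (top ~1%) gates on anti-HA and streptavidin fluorescence. Each clone's polyreactivity label reflects its gate of origin.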

Question: With “QVQLVESGGGIVQAGGSLRLSCAASGRTFKYYAMGWYRQAPGKERELVAAITSTGGSTYYADSVKGRFTISRDNAKNTVYLQMNSLKPEDTAVYYCNRYTQYRDRSDNHWGQGTQVTVSS” as the sequence, how does the “polyreactivity (PSR sort gate)” value read?
Answer: high polyreactivity

Question: For “QVQLVESGGGLVQAGGSLRLSCDASGFTFVDYTMGWYRQAPGKERELVAAISRRGGSTYYADSVKGRFTISRANSKNTVYLQLNSLQQADTAVYYCNAYRRNYYYYQRHGYWGQCTQVTVSS”, which “polyreactivity (PSR sort gate)” value is on record?
Answer: high polyreactivity

Question: Which “polyreactivity (PSR sort gate)” value does the source give for “QVQLVESGGGLVQAGGSLRLSCAASGGIFIANAMGWYRQAPGKERELVAAISSSGGSTYYADSVKGRFTISRDNAKNTVYLQMNSLKPEDTAVYYCAARRSVRRGGDYYWGQGTQVTVSS” here?
Answer: high polyreactivity

Question: Which “polyreactivity (PSR sort gate)” value does the source give for “QVQLVESGGGLDQAGGSLRLSCAASGYIVRNAMGWYRQAPWKERELVAAISRRGGSTYYADSVKGRFTISRDNAKNTVYLQMNSLKPEDTAVYYCAKDNVIPSFVADYYYWGQGTQVTVSS” here?
Answer: high polyreactivity

Question: For “QVQLVESGGGLVQAGGSLRLSCAPSGITFWVYVMGWYRQAPGKEREFVADISSGAGTTYYADSVKGRFTISRDNAKNTVYLQMNSLKPEDTAVYYCAARRWWPQWYDYWGQGTQVTVSS”, which “polyreactivity (PSR sort gate)” value is on record?
Answer: high polyreactivity

Question: Which “polyreactivity (PSR sort gate)” value does the source give for “QVQLVESGGGLVQAGGSLRLSCAASGFTFAYYAMGWYRQAPGKERELVAAISERGGSTYYADSVKGRFTISRDNAKNTVDLQMNSLKPEDTAVYYCARTFWDSPWYQSSYYSWGQGTQVTVSS” here?
Answer: low polyreactivity

Question: Which “polyreactivity (PSR sort gate)” value does the source give for “QVQLVESGGGVVQAGGSLRLSCAASGSTFGINCYGMYRQAPGKERELVAGISVSGGSTYYADSVKGRFTISRDNAKNTVYLKMNSLKPEDSAVYYCNRDTTVFLIYSYGYWGQGTQVTVSS” here?
Answer: low polyreactivity

Question: With “QVQHVESGGGLVQAGGSLRLSCAASGGTFRPYARGWSIQAPGKERELVAAISYTGSTYYADSVKGRFTISRDNAKYTVYLQMNSLKPEDTAVYYCAKDFWYPPRFDYWGQGTQVTVSS” as the sequence, how does the “polyreactivity (PSR sort gate)” value read?
Answer: low polyreactivity

Question: For “QVQLVESGGGLVQAGGSLRLSCAASGFTNAMGWYRQAPGKERELVAAISYSGDSTNYADSVKGRFTISRDNAKNTVYLQMKSLKPEDSAVYYCNASSPYDYDWGQGTQVTVSS”, which “polyreactivity (PSR sort gate)” value is on record?
Answer: low polyreactivity

Question: With “QVQLVESGGGLVQAGGSLRLSCAASGFTFSNNVMGWYREAPGKERELVAAISRRGGSTYYADSVKGRFTISRDNAKNTVYLQMNSLKPEDTAVYYCAATYPYYVDTSPGKDDHWRQGTQVTVSS” as the sequence, how does the “polyreactivity (PSR sort gate)” value read?
Answer: high polyreactivity

Question: Which “polyreactivity (PSR sort gate)” value does the source give for “QVQLVESGGGLVQAGGSLRLSCAASGLTLGSYALGWYRQAPGKERELVAAISRRSGRTYYADSVKGRFTISRDNAKNTVYLQMNSLKPEDTAVYYCNRGYTAQVYTEFDYWGQGTQVTVSS” here?
Answer: low polyreactivity

Question: With “QVQLVESGGGLVQAGGSLRLSCAASGITSNSYAMGWYRQAPGKERELVATITSGGSTNYADSVKGRFTISRDNAKNSVYLQMNSLKPEDTAVYYCNREDWLPTQYDYWGQGTQVTVSS” as the sequence, how does the “polyreactivity (PSR sort gate)” value read?
Answer: low polyreactivity

Question: For “QVQLVESGGGLVQAGVSLRLSCAASGSIFRHNAMGWYRQAPGKERELVAAINWSGGRTYYADSVKGRFTISRDNAKNTVYLHMNSLKPEDTAVYYCADPVPRSWYDYWGQGTQVTVSS”, which “polyreactivity (PSR sort gate)” value is on record?
Answer: high polyreactivity

Question: Which “polyreactivity (PSR sort gate)” value does the source give for “QVQLVESGGGLVQAGGSLRLSCAASGFNFPHYAMGWYIQAPGKERELVAAISWSGTRTYYADSVKGRFTISRDNAKNTVYLQMNSLKPEDTAVYYCNADSITEGNSRYSHFDYWGQGTQVTVSS” here?
Answer: low polyreactivity

Question: For “QVQLEESGGGLVQAGGTLRLSCAASGGIIVSYAMGWYRPAPRKERELVAAITSGGGTSYADSVKGRFTISRDNAKNTVYLQLNSLKPEDTAVYYCNADGYLAERFVIRLVEFRDYDYWGQGTQVTVSS”, which “polyreactivity (PSR sort gate)” value is on record?
Answer: low polyreactivity

Question: Which “polyreactivity (PSR sort gate)” value does the source give for “QVQLVESGGGLVQAGGSLRLTCAASGGIFVFYAMGWYRQAPGKERELVAAIRYGGSSTYYADSVKGRFTISRDNAKNTVYLQMNSLKPEDTAVYYCAAEPYSWDTWVDYDYWGQGTQVTVSS” here?
Answer: low polyreactivity

Question: For “QVQLVESGGGLVQAGGSLRLICAASGITFPHYAMGWYRQAPGKEREYVAAISKRAGSTYYADSVKGRFTISLDNAKNTVYLQMNSLKPEDTSVYYCAADDRYYSPYGFKYWGQCTQVTVSS”, which “polyreactivity (PSR sort gate)” value is on record?
Answer: high polyreactivity

Question: With “QVQLVESGGGLVQAGGSLRLSCAASGFTFYHNAMGWYRQAPGKERELVAAISGGGDSTYYADSVKGRFTISRDNAKNTVYLQMNSLKPEDTAVYYCATRRYPEVVNGEYGYWGQGTQVTVSS” as the sequence, how does the “polyreactivity (PSR sort gate)” value read?
Answer: low polyreactivity

Question: With “QVQLVESGGGLVQAGGSLRLSCAASGRTFDIYAMGWYRPAPGKERELVAAISSGGSTYYADSVKGRFTISRDNAKNTVYLQMNSLKPEDTAVYYCAVRWYDQVSRRGIGYYWGQGTQVTVSS” as the sequence, how does the “polyreactivity (PSR sort gate)” value read?
Answer: low polyreactivity

Question: With “QVQLVESGGGLVQAGGSLRLSCAASGSIFVNNAMGWYRQAPGKERELVAAISSRGGSTYYADSVKGRFTISRDNAKNTVYLQMNSLKPEDTAVYYCAAEYDGPYYSFYPEQRYYWGLGTQVTVSS” as the sequence, how does the “polyreactivity (PSR sort gate)” value read?
Answer: low polyreactivity

Question: Which “polyreactivity (PSR sort gate)” value does the source give for “QVQLVESRGGLVQAGGSLRLSCAASGSTFNYYTMGWNRQAPGKERELVATITSGGTTYYADSVKGRFTISRDNAKNTVYLQMNSLKPEDTAVYYCAVQLRRHVDMDYWGQGTQVTVSS” here?
Answer: high polyreactivity

Question: With “QVQLVESAGGLVQAGGSLRLSCAASGITFSGYAMGWYRQAPGKERELVAAISWRGVRTYYADSVKGRFTISRDNAKNTVYLQMNSLKPEDTAVYYCAAVRYITKEFYWGQGTQVTVSS” as the sequence, how does the “polyreactivity (PSR sort gate)” value read?
Answer: high polyreactivity

Question: With “QVQLVESGGGLVQAGGSLLISCAASGITFDGYAMGWYRHAPGKESELVARITATGFRTYYADSVKGRFTISRDYAKNTVYLKMNSLKPEDTAVYYCPRTTSCVQNVRKYYYWGQGTQVTVSS” as the sequence, how does the “polyreactivity (PSR sort gate)” value read?
Answer: high polyreactivity

Question: With “QVQLVESGGGLVQAGGSLRLSCAASGRIFRGYTMGWYRQAPGKERELVAAISRSTGSTNYADSVKGRFTISRDNAKNTVYLQMNSLKPEDTAVYYCAATVSPSYDYWGQGTQVTVSS” as the sequence, how does the “polyreactivity (PSR sort gate)” value read?
Answer: high polyreactivity

Question: With “QVQLVESGGGLVQAGGSLRLSCAASGFIFGYYAMGWYRQAPGKERELVAAINYNDDSTYYADSVKGRFTISRDNAKNTVYLQMNSLKPEDTAVYYCAARRFWPGNSYYYRYYYWGQGTQVTVSS” as the sequence, how does the “polyreactivity (PSR sort gate)” value read?
Answer: low polyreactivity

Question: For “QVQLVESGGVLVQAGGSLRLSCAASGRTFTPYTMGCDRPAPGKERELVAAISWSGGTTYYADSVMGRFTISRDNSKITVYLQMNSLKRVDTAVYYCAARVSRTCHGYYYFWGQGTQVTVSS”, which “polyreactivity (PSR sort gate)” value is on record?
Answer: high polyreactivity

Question: Which “polyreactivity (PSR sort gate)” value does the source give for “QVQLVESGGGIVEAGVSLRLRGAASGGSFKSKAMVWYRQAPGNEREFVAAISSSGGSTYYADSVKGRFTISRDNAKNTVYLLMNILKPEDTAVYYCAADDYGYPYLSYDYWGQGTQVTVSS” here?
Answer: high polyreactivity

Question: With “QVQLVESGGGLVQAGGSLRLSCAASGFTFTSYAMGWYRQAPGKERELVAAINRSGGSTTYADSVKGRFTISRDNAKNTVYLQMNSLNPEDTAVYYCAKAFRGHYWGQGTQVTVSS” as the sequence, how does the “polyreactivity (PSR sort gate)” value read?
Answer: high polyreactivity

Question: With “QVQLVESGGGLVQAGGSLRLSCAASGIISSFYAMGWYRQAPGKERELVAAINWSGDSTYYADSVKGRFTISRDNAKNTVYLQMNSLKPEDTAVYYCAADYYGFYDEHDYWGQGTKVTVSS” as the sequence, how does the “polyreactivity (PSR sort gate)” value read?
Answer: low polyreactivity

Question: With “QVQLGESGGGLVQAGGSLRLSCAASGIIFLGYAMGSYRQAPGKERELVAAFYSGVRTYYADSVKGRFTISRDNAKNTVYLQMNSLKPEDTAVYYCNATWTPYSSKQYYYWGLGTQVTVSS” as the sequence, how does the “polyreactivity (PSR sort gate)” value read?
Answer: low polyreactivity
